Assay results as given in patent publication US20160047810A1 (INSTITUT PASTEUR, published 2016).
Positions count from the first letter of the chain named.

T1: FtsZ (purified, from pET11a-ftsZ), P0A9A6
T1 chain: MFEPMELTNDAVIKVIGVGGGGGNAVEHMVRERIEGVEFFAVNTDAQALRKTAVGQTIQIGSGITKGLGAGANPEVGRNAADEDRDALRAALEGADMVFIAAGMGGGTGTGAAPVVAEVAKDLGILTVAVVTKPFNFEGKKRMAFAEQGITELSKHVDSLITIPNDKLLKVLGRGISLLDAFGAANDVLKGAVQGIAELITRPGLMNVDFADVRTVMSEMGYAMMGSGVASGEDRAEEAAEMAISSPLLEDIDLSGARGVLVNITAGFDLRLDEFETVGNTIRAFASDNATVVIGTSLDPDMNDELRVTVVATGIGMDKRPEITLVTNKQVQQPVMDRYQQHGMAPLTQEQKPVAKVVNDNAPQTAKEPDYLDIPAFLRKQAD

B1: K12 H6-Lop1Δ1-59Δ303-375 (protein)
chain: WGKREDTKHTPVRGLYMWGGVGRGKTWLMDLFYQSLPGERKQRLHFHRFMLRVHEELTALQGQTDPLEIIADRFKAETDVLCFDEFFVSDITDAMLLGGLMKALFARGITLVATSNIPPDELYRNGLQRARFLPAIDAIKQHCDVMNVDAGVDYRLRTLTQAHLWLSPLHDETRAQMDKLWLALAGGKRENSPTLEINHRPLATMGVENQTLAVSFTTLCVDARSQHDYIALSRLFHTVMLFD
B2: E. coli K12 Lop1Δ1-59-H6 (protein)
chain: WGKREDTKHTPVRGLYMWGGVGRGKTWLMDLFYQSLPGERKQRLHFHRFMLRVHEELTALQGQTDPLEIIADRFKAETDVLCFDEFFVSDITDAMLLGGLMKALFARGITLVATSNIPPDELYRNGLQRARFLPAIDAIKQHCDVMNVDAGVDYRLRTLTQAHLWLSPLHDETRAQMDKLWLALAGGKRENSPTLEINHRPLATMGVENQTLAVSFTTLCVDARSQHDYIALSRLFHTVMLFDVPVMTRLMESEARRFIALVDEFYERHVKLVVSAEVPLYEIYQGDRLKFEFQRCLSRLQEMQSEEYLKREHLAG
B3: FtsZ (purified, from pET11a-ftsZ) (other)
chain: T1 chain
notes: Used as GTP-induced polymers in the proteolysis assays; also called FtsZ polymers; Z-ring
B4: E. coli K12 Lop1-H6 (protein)
chain: MQSVTPTSQYLKALNEGSHQPDDVQKEAVSRLEIIYQELINSTPPAPRTSGLMARVGKLWGKREDTKHTPVRGLYMWGGVGRGKTWLMDLFYQSLPGERKQRLHFHRFMLRVHEELTALQGQTDPLEIIADRFKAETDVLCFDEFFVSDITDAMLLGGLMKALFARGITLVATSNIPPDELYRNGLQRARFLPAIDAIKQHCDVMNVDAGVDYRLRTLTQAHLWLSPLHDETRAQMDKLWLALAGGKRENSPTLEINHRPLATMGVENQTLAVSFTTLCVDARSQHDYIALSRLFHTVMLFDVPVMTRLMESEARRFIALVDEFYERHVKLVVSAEVPLYEIYQGDRLKFEFQRCLSRLQEMQSEEYLKREHLAG
B5: E. coli K12 Lop1K84A-H6 (protein)
chain: B4 chain with K84A

Experiments:
[1] = target: T1, FtsZ (purified, from pET11a-ftsZ), …
[2] = target: the molecule itself; assay: self-association, polymerization assay, ultracentrifugation and western blot

Row | Protein | FtsZ polymer proteolysis assay (ultracentrifugation, western blot) [1] | further results
1 | B1 | – | FtsZ polymer proteolysis assay (1 min at 30° C., western blot of the pellet) [1]: the 73aa C-terminal fragment of Lop1Δ1-59 was required for the proteolytic degradation of FtsZ polymers
2 | B2 | incubation of FtsZ polymers with Lop1Δ1-59 in the absence of ATP caused its significant degradation (t=1 min, no FtsZ signal in the soluble fraction) | –
3 | B3 | – | binding result [2]: binds
4 | B4 | The FtsZ polymers incubation with Lop1 lead to their slight degradation at t=3 min in an ATP-dependent manner | –
5 | B5 | no degradation of FtsZ polymers was observed with LOp1 K84A | –
